Patent US8796201B2 (The Board of Trustees of the Leland Stanford Junior …, priority 2002, dated 2014)

System: PQPQLPYPQPQLP
Test: Acceleration of brush border mediated digestion by exogenous endoproteases
Type: biochemical, wheat
Protocol: FIG. 3. Dose dependent acceleration of brush border mediated digestion by exogenous endoproteases. […] This peptide was digested with 27 ng/μl brush border membranes, either alone, with increasing amounts of exogenous prolyl endopeptidase (PEP, specific activity 28 μU/pg) from Flavobacterium meningosepticum (US Biological, MA), or with additional elastase (E-1250, Sigma, Mo.), bromelain (B-5144, Sigma, Mo.) or papain (P-5306, Sigma, Mo.) (12). After one hour, the fraction of remaining (SEQ ID NO:4) […] (compared to the initial amount at t=0 min) was analyzed and quantified as in FIG. 1.
Alerted by the high proline content as a hallmark of most immunogenic gliadin peptides, a proline-specific endopeptidase was tested for the generation of new, free peptide termini. A literature search on available proteases led to the identification of prolyl endopeptidase (PEP) from Flavobacterium meningosepticum, which is specific for the C-terminal cleavage of prolines and readily available from recombinant sources (Yoshimoto et al. (1991) J. Biochem. 110, 873-8). The stable (SEQ ID NO:4) […] intermediate was digested with BBM in the presence of exogenous PEP. […] As little as 3.5 pg PEP/27 ng BBM protein was sufficient to double the extent of proteolysis of this gliadin fragment compared to incubation with BBM alone. In comparison, other commonly used proteases like papain, bromelain or porcine elastase were much less efficient, requiring 30-fold (papain) or 3000-fold (bromelain, elastase) higher amounts of enzyme compared to PEP to give similar results. Their proteolysis was restricted to the cleavage of the Gln^4-Leu^5 and/or Gln^11-Leu^12 bonds.
A similar preferential cleavage was found for (SEQ ID NO:1) QLQPFP^↓QPQLPY. This is in agreement with the preference of this prolyl endopeptidase for a second proline in the S2′ position (Bordusa and Jakubke (1998) Bioorg. Med. Chem. 6, 1775-80). Based on this P^↓XP motif and on the present data, up to 16 new, major cleavage sites can be predicted in the α2-gliadin sequence, a major source of immunodominant epitopes identified thus far upon PEP treatment. All of them are located in the critical N-terminal part. The internal cleavage by PEP can be expected to generate additional (otherwise inaccessible) substrates for DPP IV and DCP thereby complementing the natural assimilation process of gliadins by the BBM. Thus, the specificity of prolyl endopeptidase is ideally suited for detoxification of persistent immunoactive gliadin peptides in Celiac Sprue.

B1: PEP: prolyl endopeptidase; Examples 1-2: from Flavobacterium meningosepticum (US Biological); Example 11: source not stated (protein, UniProt P27028 21-705, looked up)
Prolyl endopeptidase: QNSNVLKYPETKKVSHTDTYFGTQVSDPYRWLEDDRAEDTKAWVQQEVKFTQDYLAQIPFRDQLKKQLMDIWNYEKISAPFKKGKYTYFSKNDGLQAQSVLYRKDAAGKTEVFLDPNKFSEKGTTSLASVSFNKKGTLVAYSISEGGSDWNKIIILDAETKKQLDETLLDVKFSGISWLGDEGFFYSSYDKPKEGSVLSGMTDKHKVYFHKLGTKQSQDELIIGGDKFPRRYIGAYVTDDQRYLVVSAANATNGNELYIKDLKNKTDFIPIITGFDSNVNVADTDGDTLYLFTDKDAPNKRLVKTTIQNPKAETWKDVIAETSEPLEINTGGGYFFATYMKDAIDQVKQYDKNGKLVRAIKLPGSGNASGFGGEKTEKDLYYSFTNYITPPTIFKYNVTTGNSEVYQKPKVKFNPENYVSEQVFYTSSDGTKIPMMISYKKGLKKDGKNPTILYSYGGFNISLQPAFSVVNAIWMENGGIYAVPNIRGGGEYGKKWHDAGTKMQKKNVFNDFIAAGEYLQKNGYTSKEYMALSGRSNGGLLVGATMTMRPDLAKVAFPGVGVLDMLRYNKFTAGAGWAYDYGTAEDSKEMFEYLKSYSPVHNVKAGTCYPSTMVITSDHDDRVVPAHSFKFGSELQAKQSCKNPILIRIETNAGHGAGRSTEQVVAENADLLSFALYEMGIKSLK
preferred cleavage bond in PQPQLPYPQPQLP: Pro^8-Gln^9 and to a lesser extent the Pro^6-Tyr^7 bond
amount sufficient to double the extent of proteolysis of PQPQLPYPQPQLP compared to BBM alone (27 ng/μl BBM, one hour): 3.5 pg PEP/27 ng BBM protein
